Measurements reported in the Human Domainome abundance scans (Beltran et al. 2025).
± gives the uncertainty stated by the source.

B1: RNA-binding E3 ubiquitin-protein ligase MEX3C, residues 325 to 391; numbered along this chain, Q5U5Q3 (parent)
chain: GQTTVQVRVPYRVVGLVVGPKGATIKRIQQQTHTYIVTPSRDKEPVFEVTGMPENVDRAREEIEMHI

Variants of: B1
Test: abundance fitness (aPCA) (normalised: wild type 0, dead -1); higher = more abundant; growth selection in yeast, the domain comes from the species named
Conditions: Homo sapiens
Variant P53K has an abundance fitness of -0.012 ± 0.1. With P53C the abundance fitness was -0.514 ± 0.13. P53N showed an abundance fitness of -0.295 ± 0.21. For P53D, the abundance fitness was -0.597 ± 0.27. With P53I the abundance fitness was -0.689 ± 0.25. For P53A, the abundance fitness was -0.141 ± 0.057. P53W showed an abundance fitness of -0.871 ± 0.17. Variant P53F has an abundance fitness of -0.488 ± 0.16. P53T showed an abundance fitness of -0.375 ± 0.087. P53Q gave an abundance fitness of -0.173 ± 0.079. With P53M the abundance fitness was -0.433 ± 0.11. P53S showed an abundance fitness of -0.279 ± 0.077. Variant P53V has an abundance fitness of -0.734 ± 0.13. In the case of P53R, the abundance fitness is reported as -0.167 ± 0.05. P53G gave an abundance fitness of -0.541 ± 0.082. Variant V49F has an abundance fitness of -0.842 ± 0.4. V49N gave an abundance fitness of -0.675 ± 0.43. For V49G, the abundance fitness was -0.469 ± 0.066. Work on V49D yielded an abundance fitness of -0.71 ± 0.34. V49T showed an abundance fitness of -0.626 ± 0.12. With V49S the abundance fitness was -0.843 ± 0.13. Work on V49Y yielded an abundance fitness of -0.804 ± 0.42. For V49R, the abundance fitness was -0.788 ± 0.087. V49W gave an abundance fitness of -0.99 ± 0.17. V49I gave an abundance fitness of 0.129 ± 0.068. For V49L, the abundance fitness was -0.62 ± 0.085. V49M showed an abundance fitness of -0.793 ± 0.21. Variant V49Q has an abundance fitness of -0.901 ± 0.35. With V49P the abundance fitness was -1.34 ± 0.48. Variant V49K has an abundance fitness of -0.702 ± 0.18. Work on V49C yielded an abundance fitness of -0.668 ± 0.2. V49A gave an abundance fitness of -0.682 ± 0.12. For P45C, the abundance fitness was -0.47 ± 0.092. Work on P45L yielded an abundance fitness of -0.479 ± 0.13. For P45A, the abundance fitness was -0.422 ± 0.083. Work on P45H yielded an abundance fitness of -0.502 ± 0.11. P45D gave an abundance fitness of -0.677 ± 0.12. P45R showed an abundance fitness of -0.564 ± 0.076. P45K gave an abundance fitness of -0.42 ± 0.18. With P45S the abundance fitness was -0.387 ± 0.072. For P45E, the abundance fitness was -0.375 ± 0.09. P45G showed an abundance fitness of -0.434 ± 0.063. In the case of P45N, the abundance fitness is reported as -0.821 ± 0.27. With P45Q the abundance fitness was -0.458 ± 0.13. With P45F the abundance fitness was -0.417 ± 0.13. In the case of P45I, the abundance fitness is reported as -0.622 ± 0.29. With P45M the abundance fitness was -0.467 ± 0.16. For P45T, the abundance fitness was -0.493 ± 0.12. With P45V the abundance fitness was -0.919 ± 0.17. Work on E61G yielded an abundance fitness of -0.343 ± 0.056. For E61S, the abundance fitness was -0.089 ± 0.06. In the case of E61N, the abundance fitness is reported as -0.36 ± 0.12. With E61K the abundance fitness was 0.069 ± 0.11. Variant E61A has an abundance fitness of 0.014 ± 0.073. Work on E61Y yielded an abundance fitness of -0.177 ± 0.13. E61V showed an abundance fitness of -0.17 ± 0.076. Variant E61W has an abundance fitness of -0.353 ± 0.09. With E61Q the abundance fitness was -0.023 ± 0.084. Work on E61T yielded an abundance fitness of -0.037 ± 0.088. E61P gave an abundance fitness of -0.85 ± 0.16. With E61M the abundance fitness was -0.161 ± 0.11. E61L gave an abundance fitness of -0.266 ± 0.071. Work on E61D yielded an abundance fitness of -0.043 ± 0.083. E61F gave an abundance fitness of -0.342 ± 0.1. In the case of E61H, the abundance fitness is reported as 0.022 ± 0.16. E61I gave an abundance fitness of -0.472 ± 0.11. T50P showed an abundance fitness of -0.916 ± 0.33. For T50K, the abundance fitness was -0.52 ± 0.15. With T50V the abundance fitness was -0.745 ± 0.12. T50F showed an abundance fitness of -0.618 ± 0.16. T50Q showed an abundance fitness of -0.624 ± 0.099. Variant T50W has an abundance fitness of -0.545 ± 0.11. Variant T50H has an abundance fitness of -0.315 ± 0.19. For T50C, the abundance fitness was -0.313 ± 0.12. In the case of T50G, the abundance fitness is reported as -0.651 ± 0.08. With T50Y the abundance fitness was -0.598 ± 0.21. Work on T50M yielded an abundance fitness of -0.378 ± 0.11. With T50I the abundance fitness was -0.494 ± 0.16. Variant T50E has an abundance fitness of -0.835 ± 0.21. With T50L the abundance fitness was -0.547 ± 0.13. T50N gave an abundance fitness of -0.792 ± 0.35. Variant T50S has an abundance fitness of -0.254 ± 0.063. M52L gave an abundance fitness of -0.04 ± 0.055. With M52Y the abundance fitness was -0.19 ± 0.13. With M52Q the abundance fitness was -0.021 ± 0.095. Variant M52C has an abundance fitness of -0.194 ± 0.1. M52N showed an abundance fitness of -0.99 ± 0.49. M52W showed an abundance fitness of -0.369 ± 0.068. M52V showed an abundance fitness of -0.482 ± 0.082. For M52R, the abundance fitness was -0.167 ± 0.044. Variant M52G has an abundance fitness of -0.596 ± 0.071. Variant M52A has an abundance fitness of -0.141 ± 0.079. M52D gave an abundance fitness of -0.13 ± 0.12. Work on M52H yielded an abundance fitness of -0.515 ± 0.33. M52I gave an abundance fitness of -0.183 ± 0.17. Work on M52S yielded an abundance fitness of 0.006 ± 0.073. With M52F the abundance fitness was -0.206 ± 0.096. M52T showed an abundance fitness of 0.185 ± 0.071. Variant M52K has an abundance fitness of -0.075 ± 0.083. With M52E the abundance fitness was -0.2 ± 0.095. With D57N the abundance fitness was 0.069 ± 0.082. Work on D57W yielded an abundance fitness of -0.245 ± 0.066. Work on D57L yielded an abundance fitness of -0.057 ± 0.054. D57Q gave an abundance fitness of -0.108 ± 0.1. With D57T the abundance fitness was 0.013 ± 0.071. D57C gave an abundance fitness of -0.072 ± 0.094. Work on D57A yielded an abundance fitness of 0.151 ± 0.055. Variant D57I has an abundance fitness of -0.11 ± 0.11. With D57R the abundance fitness was 0.018 ± 0.042. D57S showed an abundance fitness of -0.229 ± 0.069. Variant D57G has an abundance fitness of -0.198 ± 0.044. Variant D57K has an abundance fitness of 0.22 ± 0.088. In the case of D57E, the abundance fitness is reported as 0.137 ± 0.049. Work on D57Y yielded an abundance fitness of -0.303 ± 0.13. With D57F the abundance fitness was -0.176 ± 0.13. D57P gave an abundance fitness of -0.673 ± 0.13. In the case of D57V, the abundance fitness is reported as -0.143 ± 0.048. In the case of D57H, the abundance fitness is reported as -0.472 ± 0.36. Work on D57M yielded an abundance fitness of 0.132 ± 0.076. F47A gave an abundance fitness of -0.889 ± 0.19. F47M gave an abundance fitness of -0.808 ± 0.18. With F47R the abundance fitness was -0.706 ± 0.074. In the case of F47D, the abundance fitness is reported as -1.01 ± 0.35. Variant F47I has an abundance fitness of -0.853 ± 0.35. F47T showed an abundance fitness of -0.511 ± 0.15. Work on F47E yielded an abundance fitness of -0.658 ± 0.11. With F47N the abundance fitness was -0.442 ± 0.22. Variant F47P has an abundance fitness of -0.974 ± 0.32. Variant F47Q has an abundance fitness of -0.648 ± 0.19. With F47Y the abundance fitness was -0.677 ± 0.25. F47C showed an abundance fitness of -0.411 ± 0.13. Variant F47V has an abundance fitness of -0.792 ± 0.11. For F47W, the abundance fitness was -0.412 ± 0.093. With F47S the abundance fitness was -0.835 ± 0.14. With F47G the abundance fitness was -0.661 ± 0.07. With K43Y the abundance fitness was -0.46 ± 0.15. K43W showed an abundance fitness of -0.435 ± 0.072. For K43V, the abundance fitness was -0.423 ± 0.069. E48Q gave an abundance fitness of -0.204 ± 0.095. Variant E48L has an abundance fitness of -0.029 ± 0.057. With E48S the abundance fitness was -0.245 ± 0.08. In the case of E48M, the abundance fitness is reported as -0.04 ± 0.079. E48F showed an abundance fitness of -0.068 ± 0.12. Work on E48W yielded an abundance fitness of -0.124 ± 0.067. With E48G the abundance fitness was -0.748 ± 0.067. E48I gave an abundance fitness of -0.007 ± 0.16. In the case of E48P, the abundance fitness is reported as -0.771 ± 0.14. Variant E48A has an abundance fitness of -0.356 ± 0.064. E48V showed an abundance fitness of -0.292 ± 0.06. E48H showed an abundance fitness of -0.155 ± 0.14. Work on E48N yielded an abundance fitness of -0.733 ± 0.43. Work on E48D yielded an abundance fitness of -0.534 ± 0.14. Variant E48C has an abundance fitness of -0.357 ± 0.1. Variant E64D has an abundance fitness of -0.015 ± 0.12. For E64K, the abundance fitness was -0.193 ± 0.14. In the case of E64H, the abundance fitness is reported as -0.222 ± 0.21. With E64F the abundance fitness was -0.029 ± 0.093. E64G gave an abundance fitness of -0.606 ± 0.065. E64C showed an abundance fitness of -0.309 ± 0.18. A59R gave an abundance fitness of -0.762 ± 0.13. With A59E the abundance fitness was -0.967 ± 0.24. Variant A59C has an abundance fitness of -0.374 ± 0.11. In the case of A59S, the abundance fitness is reported as -0.829 ± 0.14. Variant A59M has an abundance fitness of -0.313 ± 0.14. Variant A59T has an abundance fitness of -0.929 ± 0.35. For A59Q, the abundance fitness was -0.802 ± 0.3. A59L gave an abundance fitness of -0.886 ± 0.16.
